Data reported in article PMC6009650.

Legend:
[1] = target: E. coli RNAP core enzyme carrying a hexahistidine-tagged β’ subunit (E. coli) (UniProt P0A8T7)
[2] = target: E. coli RNAP core enzyme carrying a hexahistidine-tagged β’ subunit (E. coli) (UniProt P0A8T7); remark: listed apart in the source

UniProt P0A8T7, sequence (P0A8T7 whole entry, looked up): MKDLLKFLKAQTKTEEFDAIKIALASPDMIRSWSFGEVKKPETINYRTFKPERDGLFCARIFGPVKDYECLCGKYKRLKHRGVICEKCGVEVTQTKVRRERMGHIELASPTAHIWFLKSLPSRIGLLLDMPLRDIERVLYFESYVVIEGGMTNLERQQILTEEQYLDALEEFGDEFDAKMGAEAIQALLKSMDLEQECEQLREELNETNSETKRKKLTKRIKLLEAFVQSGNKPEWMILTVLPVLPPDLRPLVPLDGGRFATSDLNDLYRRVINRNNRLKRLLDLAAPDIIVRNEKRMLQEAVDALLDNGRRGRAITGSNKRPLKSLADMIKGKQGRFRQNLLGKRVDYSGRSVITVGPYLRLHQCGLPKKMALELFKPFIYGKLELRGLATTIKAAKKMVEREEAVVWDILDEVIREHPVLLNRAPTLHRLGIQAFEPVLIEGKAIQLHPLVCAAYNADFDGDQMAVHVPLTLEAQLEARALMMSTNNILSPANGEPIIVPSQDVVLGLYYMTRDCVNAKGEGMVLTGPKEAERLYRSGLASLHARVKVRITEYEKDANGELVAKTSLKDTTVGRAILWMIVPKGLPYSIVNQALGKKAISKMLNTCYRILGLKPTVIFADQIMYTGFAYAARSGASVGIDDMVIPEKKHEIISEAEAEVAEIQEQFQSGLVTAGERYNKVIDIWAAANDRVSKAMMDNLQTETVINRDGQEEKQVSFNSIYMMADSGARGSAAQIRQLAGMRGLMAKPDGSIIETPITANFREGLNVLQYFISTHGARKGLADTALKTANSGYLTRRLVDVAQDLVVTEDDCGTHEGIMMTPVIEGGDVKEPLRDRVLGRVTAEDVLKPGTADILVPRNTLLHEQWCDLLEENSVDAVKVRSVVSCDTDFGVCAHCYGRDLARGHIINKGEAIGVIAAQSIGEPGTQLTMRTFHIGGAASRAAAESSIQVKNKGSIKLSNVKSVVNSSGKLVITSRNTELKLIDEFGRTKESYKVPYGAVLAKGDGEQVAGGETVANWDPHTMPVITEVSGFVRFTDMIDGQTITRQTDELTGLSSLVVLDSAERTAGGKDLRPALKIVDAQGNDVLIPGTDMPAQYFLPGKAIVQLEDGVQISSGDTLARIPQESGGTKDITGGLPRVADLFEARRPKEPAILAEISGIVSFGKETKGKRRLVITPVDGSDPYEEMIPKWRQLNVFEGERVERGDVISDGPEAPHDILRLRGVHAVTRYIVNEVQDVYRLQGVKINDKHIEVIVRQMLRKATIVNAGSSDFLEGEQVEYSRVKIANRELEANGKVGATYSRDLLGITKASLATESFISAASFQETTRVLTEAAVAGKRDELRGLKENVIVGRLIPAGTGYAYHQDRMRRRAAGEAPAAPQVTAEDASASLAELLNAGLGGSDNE

B1: Nun protein of HK022 phage (natural protein)
chain: VKKTIYVNPDSGQNRKVSDRGLTSRDRRRIARWEKRIAYALKNGVTPGFNAIDDGPEYKINEDPMDKVDKALATPFPRDVEKIEDEKYEDVMHRVVNHAHQRNPNKKWS
- apparent Vmax of pyrophosphorolysis of TEC U10 with 1 μM Nun (15.7 min^-1 without Nun); [PPi] 10 μM to 2.5 mM [1]: 160 min⁻¹
- apparent pyrophosphorolysis rate of TEC U10 after pre-incubation with 1 μM Nun (0.21 s^-1 without Nun); 2.5 mM PPi, 5 mM MgCl2 [2]: 2.4 s⁻¹
